From US20250320296A1 (published 2025)

Key:
[1] = target: T1, murine PD-L1 on CHO cells (murine, UniProt Q9EP73 19-290); assay: FIG. 4 legend: Octet avidity curves and FACS on CHO-PD-L1 cells
T1 construct: whole, on cells; also called CHO-PD-L1 cells
Procedure: (§1) Antibody Activity. Varying concentrations of PD-L1 antibodies, with human IgG1 backbones, were added to CHO cells expressing either human or murine PD-L1 (CHO-PD-L1 cells). Binding was detected by addition of anti-human IgG1 secondary antibody conjugated to phycoerythrin. FACS analysis was performed, detecting phycoerythrin to determine fluorescence activity at a variety of antibody concentrations. EC50 was calculated using GraphPad Prism® software.

[2] = target: T2, human PD-L1 on CHO cells (human, UniProt Q9NZQ7 19-290); assay: FIG. 4: Octet avidity curves and FACS on CHO-PD-L1 cells
T2 construct: also called CHO-PD-L1 cells
Procedure: as §1

T1 sequence (Q9EP73 19-290): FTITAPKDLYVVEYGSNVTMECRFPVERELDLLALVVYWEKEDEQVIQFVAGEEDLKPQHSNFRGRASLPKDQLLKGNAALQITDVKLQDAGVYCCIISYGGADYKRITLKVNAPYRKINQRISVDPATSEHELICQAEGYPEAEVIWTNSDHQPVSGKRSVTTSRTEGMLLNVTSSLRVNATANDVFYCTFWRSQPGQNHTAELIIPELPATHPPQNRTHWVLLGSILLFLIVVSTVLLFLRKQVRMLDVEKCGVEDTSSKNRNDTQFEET
T2 sequence (Q9NZQ7 19-290 limits assumed): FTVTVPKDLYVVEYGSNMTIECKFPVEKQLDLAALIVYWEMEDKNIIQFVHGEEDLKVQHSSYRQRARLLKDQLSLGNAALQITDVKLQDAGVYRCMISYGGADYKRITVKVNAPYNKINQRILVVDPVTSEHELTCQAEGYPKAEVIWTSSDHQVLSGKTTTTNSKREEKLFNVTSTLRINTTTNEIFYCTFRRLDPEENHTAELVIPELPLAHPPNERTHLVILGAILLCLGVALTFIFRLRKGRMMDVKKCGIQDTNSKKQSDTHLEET

B1: ADI-20799 (antibody, human IgG1, V domains shown)
VH: QVQLVQSGAEVKKPGASVKVSCKASGYTFTGVYMHWVRQAPGQGLEWMGGIFPIGGTANYAQKFQGRVTITADESTSTAYMELSSLRSEDTAVYYCARDRTSGALYWGQGTLVTVSS
VL: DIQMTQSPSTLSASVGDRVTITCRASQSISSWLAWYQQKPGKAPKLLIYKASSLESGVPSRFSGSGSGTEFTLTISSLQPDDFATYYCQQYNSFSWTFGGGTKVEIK
[1]
  binding result: binds
[2]
  binding result: binds
